{"source": "patent US20140045754A1", "about": "“GLP-1 COMPOSITIONS” (priority 2011, published 2014)", "key": {"[1]": {"assay": "optimisation of liraglutide:protamine molar ratios: free liraglutide and protamine in supernatant by liquid chromatography", "conditions": "pH 7,8; 0,11 molecule of protamine per molecule of liraglutide", "method": "In each of 8 containers, 10% of the resulting suspension was transferred. Under vigorous stirring, a specific portion of a 18 mM Protamine Chloride solution was added.\nThe initial container received 0,10 mL of the 18 mM Protamine Chloride solution, followed by 0,2 mL to the second container; ending with addition of 0,8 mL to the final container (number 8). Water was added to each of the eight containers to achieve a total of 5,0 grams of suspension. After 1 hour storage, about 1 mL were withdrawn from each container and centrifuged for 10 minutes at high speed."}, "[2]": {"assay": "achievable concentration of protamine sulphate stock solution with NaCl", "format": "physicochemical", "conditions": "21° C.", "description": "In one embodiment, the stock solution of the polycationic compound is prepared with NaCl. […] This allows the storage and/or use of higher concentrations and lowers the volumes of polycationic compound stock solution needed. This makes much larger volume available for either the GLP-1 compound stock solution or the solution of metal salt. Thereby, it is easier to control the mixing process, involving the aqueous solution of GLP-1 compound and the stock solution of metal salt. As a result of this, the injectability of the final formulation is improved, especially after storage at elevated temperatures. For example, a 30-60 mg/mL protamine sulphate stock solution is achievable at 21° C. when adding sodium chloride corresponding to a concentration of 0,3M, and a 30-80 mg/mL protamine sulphate stock solution is achievable at 21° C. when adding sodium chloride corresponding to a concentration of 0,5M."}}, "data": [{"compound": "CCCCCCCCCCCCCCCC(=O)N[C@@H](CCC(=O)NCCCC[C@H](NC(=O)[C@H](C)NC(=O)[C@H](C)NC(=O)[C@H](CCC(N)=O)NC(=O)CNC(=O)[C@H](CCC(=O)O)NC(=O)[C@H](CC(C)C)NC(=O)[C@H](Cc1ccc(O)cc1)NC(=O)[C@H](CO)NC(=O)[C@H](CO)NC(=O)[C@@H](NC(=O)[C@H](CC(=O)O)NC(=O)[C@H](CO)NC(=O)[C@@H](NC(=O)[C@H](Cc1ccccc1)NC(=O)[C@@H](NC(=O)CNC(=O)[C@H](CCC(=O)O)NC(=O)[C@H](C)NC(=O)[C@@H](N)Cc1cnc[nH]1)[C@@H](C)O)[C@@H](C)O)C(C)C)C(=O)N[C@@H](CCC(=O)O)C(=O)N[C@@H](Cc1ccccc1)C(=O)N[C@H](C(=O)N[C@@H](C)C(=O)N[C@@H](Cc1c[nH]c2ccccc12)C(=O)N[C@@H](CC(C)C)C(=O)N[C@H](C(=O)N[C@@H](CCCNC(=N)N)C(=O)NCC(=O)N[C@@H](CCCNC(=N)N)C(=O)NCC(=O)O)C(C)C)[C@@H](C)CC)C(=O)O", "note": "[liraglutide, N^ε26-[(4S)-4-carboxy-4-(hexadecanoylamino)butanoyl]-[Arg^34]-GLP-1-(7-37)-peptide]", "values": [{"measurement": "composition stability and incorporation of protamine", "setting": "[1]", "value": "good composition stability"}]}, {"compound": "protamine sulphate", "values": [{"measurement": "achievable stock solution concentration", "setting": "[2]; sodium chloride 0,3M", "value": "30 to 60", "unit": "mg/mL"}, {"measurement": "achievable stock solution concentration", "setting": "[2]; sodium chloride 0,5M", "value": "30 to 80", "unit": "mg/mL"}]}]}
